US20070036814A1

Assays:
[1] = biological target: canine fibrinogen (canine) (UniProt P68213); experiment: cell-based or functional assay
fibrinogen = experiment: cell-based or functional assay

| Substance | decrease in attachment of the fibrinogen receptor mutant to ex vivo polyvinyl chloride and polyethylene tubings exposed to canine blood [1] [%] | loss of adherence of the fibrinogen receptor mutant (cIfA::Tn917) to canine fibrinogen coated PMMA coverslips [1] [%] | titre in microtitre clumping assay (Newman wild-type) (fibrinogen) [titre] | Inhibiting concentration, inhibition of clumping by lysate (fibrinogen) [micro g] |
| --- | --- | --- | --- | --- |
| CIfA protein on the surface of S. aureus strain Newman cells (from UniProt Q53653 40-899) (receptor) | > 80 | > 95 | 2048 | – |
| glutathione S-transferase fusion protein of CIfA Region A (residues 23-550) expressed from pCF24 (from UniProt Q53653 23-550) | – | – | – | 9.37 |
| glutathione S-transferase fusion protein of CIfA regions R, W and M (residues 546-933) expressed from pCF25 (from UniProt Q53653 546-933) | – | – | – | > 300 |
| glutathione S-transferase fusion protein of CIfA residues 221-550 expressed from pCF31 (from UniProt Q53653 221-550) | – | – | – | 9.37 |
